Test results: patent US12103969B2, “Anti-Siglec antibody, pharmaceutical composition comprising the same, and uses thereof” (Academia Sinica, priority 2018, dated 2024)

Experiments:
hHBV [1] = test: Bio-layer interferometry: immobilized Fc-lectin and hHBV; type: binding, hepatitis B virus; conditions: hHBV, BLI, same condition as Siglec-3
Text: HBV was purified from blood samples of chronic hepatitis B (CHB) patients and HBV-transgenic mice, respectively. The protocol for HBV was purified by conventional method. HBV viral load was determinate by RT-PCR according to a standard HBV plasmid. HBsAg level was quantified by the HBsAg ELISA kit.
Sialidase S and sialidase C were used to remove sialoglycan from HBV or sialoglycans, respectively. Sialidase S releases only α(2-3)-linked Neu5Ac, while Sialidase C release both α(2-3) and α(2-6)-linked Neu5Ac. The sialidase-treated substrates were used for HBV-Siglec-3 binding assay and competition assay.
The interaction between human Siglec.Fc fusion protein and HBV was determined by the Bio-layer interferometry. […] The valence between HBV and human Siglec-3 was determined, which correlates the strength of multivalent association with that of monovalent association as shown in the following: • KA, surf=F (S×10^−2)^n−1×(KA, mono)^n, where KA, surf is thereciprocal of KD (HBV and Siglec-3), KA, mono is the reciprocal of KD (Biantennary a2-6 linked sialylglycopeptide and Siglec-3); n is the number of valency number; F is the statistic factor in the system and S is equal to 40(Å), which is estimated according to crystal structure of Siglec-3 published on RCSB protein data bank (Number: 5J0B). […]

hHBV [2] = test: Immunoprecipitation of hHBV by Siglec ECD.Fc fusion proteins; type: binding, hepatitis B virus; conditions: Western blot with anti-HBs
Protocol: HBV ([…]) was incubated with recombinant Siglec-3/-7/-9 ECD.Fc fusion proteins, respectively, for 16 hours at 4° C., followed by incubation with Sepharose-conjugated Protein A beads for immunoprecipitation. The samples were fractionated on 12% SDS-PAGE before blotting to PVDF membrane and incubated in blocking buffer (0.05% Tween 20 in TBS containing 5% BSA) at 4° C. overnight. Blots were incubated with […] polyclonal goat-anti-HBs Ab for 1 hour at room temperature, followed by incubation with Streptavidin-HRP (1:10000 dilution) for another 1 hour at room temperature, and were visualized by ECL.

B1: Siglec-7: recombinant human Siglec-7 extracellular domain (ECD).Fc fusion protein (protein)
chain: QKSNRKDYSLTMQSSVTVQEGMCVHVRCSFSYPVDSQTDSDPVHGYWFRAGNDISWKAPVATNNPAWAVQEETRDRFHLLGDPQTKNCTLSIRDARMSDAGRYFFRMEKGNIKWNYKYDQLSVNVTALTHRPNILIPGTLESGCFQNLTCSVPWACEQGTPPMISWMGTSVSPLHPSTTRSSVLTLIPQPQHHGTSLTCQVTLPGAGVTTNRTIQLNVSYPPQNLTVTVFQGEGTASTALGNSSSLSVLEGQSLRLVCAVDSNPPARLSWTWRSLTLYPSQPSNPLVLELQVHLGDEGEFTCRAQNSLGSQHVSLNLSLQQEYTGKMRPVSGVLLGAVGGAGATALVFLSFCVIFIVVRSCRKKSARPAADVGDIGMKDANTIRGSASQGNLTESWADDNPRHHGLAAHSSGEEREIQYAPLSFHKGEPQDLSGQEATNNEYSEIKIPK
hHBV [1]
  binding to hHBV: did not bind
hHBV [2]
  pull down of hHBV HBsAg (immunoprecipitation): cannot pull down
